According to patent US5070188A, “Acylated epidermal growth factor” (Ethicon, Inc., priority 1989, dated 1991):
Several values for one entry are separate records, joined by “and”; a condition that tells them apart may be missing. Equal values may be shown once.

Columns and labels:
[1] = shelf stability, activity followed with the Receptor Binding Assay; assay type: physicochemical; settings: for activity retained (RBA), 2 months/4° C.: stored 2 months at 4° C.; for activity retained (RBA), 2 months/37° C.: stored 2 months at 37° C.
Description: Samples are further analyzed by testing the biological activity in the Receptor Binding Assay (RBA) system and/or in a mitogenic assay system according to the standard procedure. Under these conditions, the extent of activity of modified EGF was compared with that of the unmodified EGF on a weight per weight basis. A similar test is used to follow the stability of EGF products. The RBA is described in Savage et al., Analytical Biochem, 111, pages 195 et seq. (1981) and in U.S. Pat. No. 4,717,717. For RBA studies, a cell line with a high density of receptors for EGF is grown to confluency in microwell plates. After removing the growth media and slightly fixing the cells, the binding of modified EGF to the cell surface in the presence of competing iodinated-EGF is compared with the binding of non-radioactive, unmodified EGF under the same conditions. The concentration of modified EGF is extrapolated from the standard curve made for unmodified EGF. Acylated EGF with acyl side chains ranging from C2 to C8 retained biological activity according to the RBA.
The shelf stability of EGF and acylated EGF derivatives with different degrees of modification and acyl side chains was studied using the Receptor Binding Assay (RBA) system. […]

[2] = tested on: EGF sensitive cell line; assay: mitogenic assay, tritium labelled thymidine incorporation; assay type: cell-based; settings: compared with C2 acylated EGF
Method: For mitogenic assay systems, an EGF sensitive cell line is grown to confluency at the bottom of microwell plates. After replacing the regular growth media with growth factor poor media, modified EGF is added with tritium labelled thymidine. The extent of incorporation of the tritium labelled thymidine in the presence and absence of growth factors is then weighed. The effects of modified EGF are compared with those of unmodified EGF under the same system.

[3] = biological target: T1, trypsin (Bos taurus, UniProt P00760); assay: in vitro susceptibility to proteolytic degradation (tryptic digestion, HPLC); assay type: in vitro ADME
T1 construct: purchased Worthington Biochem Corp
T1 sequence (P00760 24-246): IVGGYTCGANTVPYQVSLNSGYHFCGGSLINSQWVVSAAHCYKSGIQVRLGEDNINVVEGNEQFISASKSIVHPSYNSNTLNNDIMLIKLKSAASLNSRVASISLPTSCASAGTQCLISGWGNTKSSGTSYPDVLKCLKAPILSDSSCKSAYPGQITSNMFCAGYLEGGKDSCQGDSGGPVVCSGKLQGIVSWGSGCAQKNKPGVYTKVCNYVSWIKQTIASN

Substance	activity retained (RBA), 2 months/4° C. [1]	activity retained (RBA), 2 months/37° C. [1]	activity retained (RBA), stored time 0 [1] [%]	other results
C8 -EGF: acylated human EGF with C8 acyl side chain	83.19%	69.04%	100	
C6 -EGF: acylated human EGF with C6 acyl side chain	61.88%	66.94%	100	
C12: acylated EGF having an acyl side chain of C12				reactivity in the mitogenic assay [2]: nearly as reactive as C2
C2 -EGF: human EGF triacylated with acetyl groups		87.37% and 88%	100	remaining fraction that resisted proteolysis ([3]; mixture C2-EGF:native EGF 1.5 to 1, TPCK-trypsin, up to 4 hours incubation): 75-80%; fraction that resisted proteolytic cleavage at Arg 41 and Arg 45 ([3]; trypsin, over 4 hours incubation at 30° C.): over 75%; tryptic fragments generated (HPLC, cation exchanger column) ([3]; tryptic digestion, substance alone): did not generate any fragment; improvement of retained activity over control unmodified native EGF ([1]; stored at 37° C., 2 months): 30%
Control EGF: Recombinantly produced human EGF (Chiron Corporation), unmodified 53 amino acid polypeptide, used as control [reference compound]	81.09% and 81%	57.52% and 58%	100	fraction digested ([3]; mixture C2-EGF:native EGF 1.5 to 1, TPCK-trypsin, within about 20 minutes): over 85%; cleavage by trypsin ([3]; within 5 minutes post-incubation, 30° C.): over 65%; remaining molecules cleaved by trypsin ([3]; within 2 hours post-incubation): 35%
